For this series, the target named is EGFR antigen (epidermal growth factor receptor) (UniProt P00533 25-645). In words: electrochemical aptasensor (CV/DPV); aptamer on NH2-GO/THI/AuNP paper electrode; linear range 0.05-200 ng/mL, LOD 5 pg/mL (not a Kd); Aptamer on NH2-GO/THI/AuNP electrode, mercaptoethanol block, wash in TE (10 mM Tris-HCl, 1 mM EDTA; TE stock pH 8.0); binding buffer and temperature not given in the material. As to conditions: protein: commercial.

B1: anti-EGFR aptamer (ssDNA)
DNA: TACCAGTGCGATGCTCAGTGCCGTTTCTTCTCTTTCGCTTTTTTTGCTTTTGAGCATGCTGACGCATTCGGTTGAC
modifications: 5'-thiol
In the case of B1, the binding result was “binds”.

These data come from publication PMC8433370, “Low sample volume origami-paper-based graphene-modified aptasensors for label-free electrochemical detection of cancer biomarker-EGFR”.
